Experimental findings from patent US20140303084 are described below.

Data set [1] deals with T1, RRAPGKLTCLASYCWLF WAGYP SLRGSLLVGV
T1 sequence: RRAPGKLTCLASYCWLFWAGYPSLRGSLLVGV

Data set [2] relates to T2, RRAPGKLQCLASYCWLFWTG-Nle-A.
T2 sequence: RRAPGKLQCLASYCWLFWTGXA

In data set [3] the test system is T3, KLT-Orn-LASY-Glu-WLF-CONH2.
T3 sequence: KLTXLASYEWLF

Data set [4] relates to T4, AVDSLPLYGA RSAPS KLTCLASYCWLFWTGIA
T4 sequence: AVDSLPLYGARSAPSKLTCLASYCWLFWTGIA

The next data set has as its system T5, R-k-MeLeu-TCLASYCWLF
T5 sequence: RKLTCLASYCWLF

The test system of data set [5] is T6, ═N-O-(CH2)3-O-N═(COCH2CH2CO-KLTCLASYCWLF)2.
T6 sequence: KLTCLASYCWLF

The subject of the next data set is T7, KLTCLASYCWLFK
T7 sequence: KLTCLASYCWLFK

Data set [6] deals with T8, RRAPGKLTCLASYCWLFWK(PEG2-Biotin)GIA.
T8 sequence: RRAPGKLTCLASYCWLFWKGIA

Data set [7] has as its system T9, RRAPGKLTCLASYCwLFWTGIA.
T9 sequence: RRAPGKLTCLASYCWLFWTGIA

Data set [8] deals with T10, RRAPGKLTCLASYCWLFWTGIa.
T10 sequence: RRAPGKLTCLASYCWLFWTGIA

The test system of a further data set is T11, KLQCLASYCWLFWTGIA
T11 sequence: KLQCLASYCWLFWTGIA

In another data set the test system is T12, KLSCQAGQCWVF
T12 sequence: KLSCQAGQCWVF

In data set [9] the test system is T13, VGSGDERALP SRASG KLTCLASYCWLFWTGIA
T13 sequence: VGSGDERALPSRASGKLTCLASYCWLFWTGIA

In data set [10] the test system is T14, RRAPGKLTCLASYCWLF WTTYA SYATKPADTT
T14 sequence: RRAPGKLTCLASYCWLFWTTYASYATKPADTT

For another data set, the system named is T15, RRAPGKLQCLASYCWLFWT
T15 sequence: RRAPGKLQCLASYCWLFWT

For a further data set, the system named is T16, KLTCLASQCWLF
T16 sequence: KLTCLASQCWLF

In a further data set the test system is T17, KATCLASYCWLF
T17 sequence: KATCLASYCWLF

Data set [11] concerns T18, rRAPGKLTCLASYCWLFWTGIA-PEG16-Lys(PEG2-Biotin)-PEG16-CNPRGD-Tyr(OEt)-RC.
T18 sequence: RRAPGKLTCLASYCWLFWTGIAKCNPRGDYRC

The subject of the next data set is T19, LRQRLAKTCVASYCWLFSLVAS
T19 sequence: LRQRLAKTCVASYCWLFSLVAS

The next data set relates to T20, HYARVQLRCLDGYCWLLTKSRM
T20 sequence: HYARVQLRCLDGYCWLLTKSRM

Bounds are passed on as bounds.

As for human Factor IXa, the Vmax, FXa generation assay is greater than 3 in data set [1]; greater than 2 in data set [2]; greater than 3 in the data set with R-k-MeLeu-TCLASYCWLF; greater than 3 in [5]; greater than 3 in the data set with KLTCLASYCWLFK; greater than 2 with RRAPGKLTCLASYCwLFWTGIA [7]. In addition, the Vmax, FXa generation assay (with KLQCLASYCWLFWTGIA; with KLSCQAGQCWVF; in [9]; in data set [10]; in the data set with RRAPGKLQCLASYCWLFWT; in the data set with KLTCLASQCWLF) was greater than 2 throughout. Besides, the Vmax, FXa generation assay with KATCLASYCWLF is greater than 2; in data set [11] it was greater than 3; in the data set with LRQRLAKTCVASYCWLFSLVAS, greater than 1.5; in the data set with HYARVQLRCLDGYCWLLTKSRM, greater than 2.5. Besides, the “Vmax, FXa generation assay; (++) means 1-2” value (in [3]; in data set [4]; in data set [6]; with RRAPGKLTCLASYCWLFWTGIa [8]) was “(++)” in each case.
